Measured values published in paper PMC3084282.

Legend:
[1] = target: α-crystallin (bovine lens) (bovine (endogenous in calf lens)) (UniProt P02470)
[2] = target: α-crystallin (bovine lens) (bovine (endogenous in calf lens)) (UniProt P02470); remark: listed apart in the source

UniProt P02470, sequence (P02470 whole entry, chain 1 of 2): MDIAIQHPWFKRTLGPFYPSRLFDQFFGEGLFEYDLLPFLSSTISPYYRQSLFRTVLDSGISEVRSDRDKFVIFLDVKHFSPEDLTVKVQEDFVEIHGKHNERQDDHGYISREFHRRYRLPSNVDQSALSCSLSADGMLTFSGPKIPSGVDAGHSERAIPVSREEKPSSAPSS
UniProt P02470, sequence (P02510 whole entry, chain 2 of 2, further chain): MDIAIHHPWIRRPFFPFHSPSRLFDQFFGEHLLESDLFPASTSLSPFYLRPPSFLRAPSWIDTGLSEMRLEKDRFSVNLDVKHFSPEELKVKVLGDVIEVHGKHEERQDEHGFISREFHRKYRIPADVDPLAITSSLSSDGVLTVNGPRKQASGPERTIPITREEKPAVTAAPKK

Bis-ANS fluorescence (hydrophobicity) of α-crystallin (100 µg) with 10 or 20 µg of peptide, 50 mM phosphate buffer pH 7.2, 60 min [1]: 30% | precipitation of soluble α-crystallin from 200 µg of CLE after incubation with increasing amounts of peptide (up to 50 µg), 16 h, 37°C; supernatant analysed by MALS [2]: > 50%
Substance: αA-(66-80) peptide
